Source: patent publication US20210163555

Experiments:
[1] = target: Recombinant human p18 (His-p18)

Molecule	levels of ubiquitinated p18 after Ube3a siRNA KD (His-ubiquitin pull-down assay) (Flag-p18)	in vitro ubiquitination of p18 (Western blot) [1]
endogenous Ube3a of COS-1 cells	100.0±1.8 vs. 66.8±3.7	–
His6-E6AP (protein) MEKLHQCYWKSGEPQSDDIEASRMKRAAAKHLIERYYHQLTEGCGNEACTNEFCASCPTFLRMDNNAAAIKALELYKINAKLCDPHPSKKGASSAYLENSKGAPNNSCSEIKMNKKGARIDFKDVTYLTEEKVYEILELCREREDYSPLIRVIGRVFSSAEALVQSFRKVKQHTKEELKSLQAKDEDKDEDEKEKAACSAAAMEEDSEASSSRIGDSSQGDNNLQKLGPDDVSVDIDAIRRVYTRLLSNEKIETAFLNALVYLSPNVECDLTYHNVYSRDPNYLNLFIIVMENRNLHSPEYLEMALPLFCKAMSKLPLAAQGKLIRLWSKYNADQIRRMMETFQQLITYKVISNEFNSRNLVNDDDAIVAASKCLKMVYYANVVGGEVDTNHNEEDDEEPIPESSELTLQELLGEERRNKKGPRVDPLETELGVKTLDCRKPLIPFEEFINEPLNEVLEMDKDYTFFKVETENKFSFMTCPFILNAVTKNLGLYYDNRIRMYSERRITVLYSLVQGQQLNPYLRLKVRRDHIIDDALVRLEMIAMENPADLKKQLYVEFEGEQGVDEGGVSKEFFQLVVEEIFNPDIGMFTYDESTKLFWFNPSSFETEGQFTLIGIVLGLAIYNNCILDVHFPMVVYRKLMGKKGTFRDLGDSHPVLYQSLKDLLEYEGNVEDDMMITFQISQTDLFGNPMMYDLKENGDKIPITNENRKEFVNLYSDYILNKSVEKQFKAFRRGFHMVTNESPLKYLFRPEEIELLICGSRNLDFQALEETTEYDGGYTRDSVLIREFWEIVHSFTDEQKRLFLQFTTGTDRAPVGGLGKLKMIIAKNGPDTERLPTSHTCFNVLLLPEYSSKEKLKERLLKAITYAKGFGML	–	p18 ubiquitination was only observed in the presence of Ube3a, ubiquitin, E1, E2, and ATP
